Literature values, collected in paper PMC3373023.

Assays:
Asp42 = Asp42 (UniProt position 63, KRGCADNCPKN)
Asp59 = Asp59 (UniProt position 80, VCCSTDKCN--)
Glu17 = Glu17 (UniProt position 38, YKTCPEGKNLC)
His4 = His4 (UniProt position 25, YTLKCHNTQLP)
Asp27 = Asp27 (UniProt position 156, PLCGSDNKTYG)
Asp7 = Asp7 (UniProt position 136, AAVSVDCSEYP)
Glu10 = Glu10 (UniProt position 139, SVDCSEYPKPA)
Glu19 = Glu19 (UniProt position 148, PACTLEYRPLC)
Glu43 = Glu43 (UniProt position 172, CNAVVESNGTL)
His52 = His52 (UniProt position 181, TLTLSHFGKC-)
Lys13 = Lys13 (UniProt position 142, CSEYPKPACTL)
Lys29 = Lys29 (UniProt position 158, CGSDNKTYGNK)
Lys34 = Lys34 (UniProt position 163, KTYGNKCNFCN)
Lys55 = Lys55 (UniProt position 184, LSHFGKC----)
Tyr11 = Tyr11 (UniProt position 140, VDCSEYPKPAC)
Tyr20 = Tyr20 (UniProt position 149, ACTLEYRPLCG)
Tyr31 = Tyr31 (UniProt position 160, SDNKTYGNKCN)

Cardiotoxin V (CTX A5, cardiotoxin A5) (Naja naja atra (Naja atra, Taiwan cobra))
pKa (Asp42): 3.2 | pKa (Asp59): <2.3 | pKa (Glu17): 4.0 | pKa (His4): 5.6

Turkey ovomucoid third domain (OMTKY3) (Meleagris gallopavo)
pKa (Asp27): ≤2.3 | pKa (Asp7): ≤2.7 | pKa (Glu10): 4.2 | pKa (Glu19): 3.2 | pKa (Glu43): 4.8 | pKa (His52): 7.5 | pKa (Lys13): 9.9 | pKa (Lys29): 11.1 | pKa (Lys34): 10.1 | pKa (Lys55): 11.1 | pKa (Tyr11): 10.2 | pKa (Tyr20): 11.1 | pKa (Tyr31): >12.5
